Several values for one entry are separate records, joined by “and”; a condition that tells them apart may be missing. Identical values can stand only once.
Experiments:
[1] = biological target: recombinant human CD38 extracellular domain (ECD) fused to a his-tag (human) (UniProt P28907); test: SPR
[2] = biological target: CD38 on CD38+ human cells (Daudi, Ramos, PBMCs) (human (endogenous in Daudi, Ramos and PBMCs)) (UniProt P28907); test: flow cytometry on cells
[3] = biological target: human CD38 on Chinese hamster ovary (CHO) cells stably transfected to express CD38 (human) (UniProt P28907); test: flow cytometry on cells
[4] = biological target: TNB-738, anti-CD38 biparatopic antibody (human (from transgenic UniRat) | human); test: BLI

| Kd [1] | EC50 [2] | EC50 [3] | Kd [4] | Substance |
| --- | --- | --- | --- | --- |
| 0.1 to 3.8 nM | 39.7 nM and 50.3 nM | 70.2 nM |  | TNB-738, anti-CD38 biparatopic antibody (bispecific antibody) |
|  |  |  | 2.48 nM | recombinant human CD38 extracellular domain (ECD) fused to a his-tag (from UniProt P28907 43-300) (domain or fragment) |

— PMC9311320
